Earlier results on two substances are cited in paper PMC7914648 (Pharmaceuticals, 2021).

In one data set the test system is mice. Conditions: cited from earlier work. As to the method:
While in the name of “reduction” a proper toxicological study was not carried out, the toxicity of TAT-PAPTP was evident. Peptide toxicity issues are not often discussed in the literature, but peptides, in particular arginine-rich ones, can be toxic in vivo as well as for cultured cells. […] Here the TAT-PAPTP conjugate was administered at 5 µmol/kg bw. However, conjugates can behave differently and have different toxicities depending on the attached “cargo” [54, 65, 66], as confirmed by the results of the present ...

For data set [1] the following is noted: mouse, in vivo, iv; cited from earlier work.

Consider “TAT47–57: arginine-rich TAT peptide segment”, for which, in the data set on mice, the LD50 is on record as 17.5 µmol/kg bw.

For the substance TWPKHFDKHTFYSILKLGKH [L57], the brain input entry in data set [1] is on record as “approximately 0.04 % of the injected dose”.
